Reference: article PMC12834914, “The biochemical dynamics of the glycogen phosphatase laforin directly impact brain metabolism” (The Journal of Biological Chemistry, 2025)

T1: laforin C266S (LexA fusion) (human, UniProt O95278 1-331, C266S)
T1 construct: laforin, glycogen phosphatase encoded by EPM2A, catalytic cysteine mutated to serine; in mouse laforin the same change is C265S; also called LCS; laforin C/S; source: yeast two-hybrid fusion (S. cerevisiae, pEG202)
T1 sequence (looked up): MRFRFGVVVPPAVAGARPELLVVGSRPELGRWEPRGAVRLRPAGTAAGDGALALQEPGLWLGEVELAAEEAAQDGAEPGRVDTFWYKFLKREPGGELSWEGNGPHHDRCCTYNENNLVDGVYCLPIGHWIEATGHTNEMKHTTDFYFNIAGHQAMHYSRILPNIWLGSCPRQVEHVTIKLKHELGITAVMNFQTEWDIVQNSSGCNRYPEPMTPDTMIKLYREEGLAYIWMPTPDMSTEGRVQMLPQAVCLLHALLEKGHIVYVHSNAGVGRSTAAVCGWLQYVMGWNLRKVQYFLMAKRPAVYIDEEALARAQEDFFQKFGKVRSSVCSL


Biological target: T1, laforin C266S (LexA fusion)
Assay: two-hybrid; LexA-laforin (pEG202) with Gal4 activation domain-malin or -PTG (pACT2) in S. cerevisiae; beta-galactosidase activity in yeast cell extract, in Miller Units
Settings: partners not purified

Binder | fold signal against WT laforin
protein targeting to glycogen (Gal4 activation domain fusion) (natural protein, UniProt Q9UQK1 1-317, looked up, protein targeting to glycogen (PTG); also called PTG; source: yeast two-hybrid fusion (S. cerevisiae, pACT2)) MSCTRMIQVLDPRPLTSSVMPVDVAMRLCLAHSPPVKSFLGPYDEFQRRHFVNKLKPLKSCLNIKHKAKSQNDWKCSHNQAKKRVVFADSKGLSLTAIHVFSDLPEEPAWDLQFDLLDLNDISSALKHHEEKNLILDFPQPSTDYLSFRSHFQKNFVCLENCSLQERTVTGTVKVKNVSFEKKVQIRITFDSWKNYTDVDCVYMKNVYGGTDSDTFSFAIDLPPVIPTEQKIEFCISYHANGQVFWDNNDGQNYRIVHVQWKPDGVQTQMAPQDCAFHQTSPKTELESTIFGSPRLASGLFPEWQSWGRMENLASYR | ~2 fold
malin (Gal4 activation domain fusion) (natural protein, UniProt Q6VVB1 1-395, looked up, malin; source: yeast two-hybrid fusion (S. cerevisiae, pACT2)) MAAEASESGPALHELMREAEISLLECKVCFEKFGHRQQRRPRNLSCGHVVCLACVAALAHPRTLALECPFCRRACRGCDTSDCLPVLHLIELLGSALRQSPAAHRAAPSAPGALTCHHTFGGWGTLVNPTGLALCPKTGRVVVVHDGRRRVKIFDSGGGCAHQFGEKGDAAQDIRYPVDVTITNDCHVVVTDAGDRSIKVFDFFGQIKLVIGGQFSLPWGVETTPQNGIVVTDAEAGSLHLLDVDFAEGVLRRTERLQAHLCNPRGVAVSWLTGAIAVLEHPLALGTGVCSTRVKVFSSSMQLVGQVDTFGLSLYFPSKITASAVTFDHQGNVIVADTSGPAILCLGKPEEFPVPKPMVTHGLSHPVALTFTKENSLLVLDTASHSIKVYKVDWG | ~2 fold
